*1 amine or outer side, *2 acyl side, *3 side chain or, on linkers, in order; H or OH if unused. Bridges are numbered along the chain shown (N, C = ends). Primed or numbered codes have the meaning given here. [ ]: non-standard residue; d: D form. Phe(4-(2-acetylaminoethoxy)) = 4-(2-acetamidoethoxy)-phenylalanine, CC(=O)NCCOc1ccc(C[C@H](N[*:1])C(=O)[*:2])cc1; Phe(4-OMe)(3) = O-methyl-L-tyrosine (4-methoxy-L-phenylalanine), COc1ccc(C[C@H](N[*:1])C(=O)[*:2])cc1; Phe(4-OMe) = 4-methoxy-L-phenylalanine (O-methyl-L-tyrosine), COc1ccc(C[C@H](N[*:1])C(=O)[*:2])cc1; 6‑amino‑1,4‑diazepane‑2,5‑dione = C-terminal 6-amino-1,4-diazepane-2,5-dione group; Phe(3,4-(OMe)2) = COc1ccc(C[C@H](N)C(=O)O)cc1OC; Phe(3,4-Cl2) = N[C@@H](Cc1ccc(Cl)c(Cl)c1)C(=O)O; Phe(3,4-F2) = N[C@@H](Cc1ccc(F)c(F)c1)C(=O)O; 1Nal = N[C@@H](Cc1cccc2ccccc12)C(=O)O; 2Nal = N[C@@H](Cc1ccc2ccccc2c1)C(=O)O; AEF = NCCOc1ccc(C[C@H](N)C(=O)O)cc1; αMeL = CC(C)C[C@](C)(N)C(=O)O; Chg = N[C@H](C(=O)O)C1CCCCC1; hLeu = CC(C)CC[C@H](N)C(=O)O; αMeK = C[C@](N)(CCCCN)C(=O)O; Abu = CC[C@H](N)C(=O)O; Dap = NC[C@H](N)C(=O)O; Aib = CC(C)(N)C(=O)O; βAla = NCCC(=O)O

The chains are these.
B1: Ac-Cyclo-[[Abu]-QTWQC]-[Phe[4-(2-aminoethoxy)]]-[2-Nal]-[hLeu]-[Lys(Ac)]-N-[βAla]-NH2 (peptide)
peptide: Ac-[Abu]QTWQC[AEF][2Nal][hLeu]K(Ac)N[βAla]-NH2
modifications: thioether 1-6
B2: Ac-Cyclo-[[Abu]-QTWQC]-[Phe[4-(2-aminoethoxy)]]-[2-Nal]-[α-MeLeu]-ENN-NH2 (peptide)
peptide: Ac-[Abu]QTWQC[AEF][2Nal][αMeL]ENN-NH2
modifications: thioether 1-6
B3: Ac-Cyclo-[[Abu]-QTWQC]-[Phe[4-(2-(acetyl-aminoethoxy)]]-[2-Nal]-[α-MeLys(Ac)]-ENQ-NH2 (peptide)
peptide: Ac-[Abu]QTWQC[Phe(4-(2-acetylaminoethoxy))][2Nal][αMeK](Ac)ENQ-NH2
modifications: thioether 1-6
B4: Ac-Cyclo-[[Abu]-QTWQC]-[Phe[4-(2-(acetyl-aminoethoxy)]]-[2-Nal]-[α-MeLys(Ac)]]-ENN-NH2 (peptide)
peptide: Ac-[Abu]QTWQC[Phe(4-(2-acetylaminoethoxy))][2Nal][αMeK](Ac)ENN-NH2
modifications: thioether 1-6
B5: Ac-Cyclo-[[Abu]-QTWQC]-[Phe(4-OMe)]-[2-Nal]-[α-MeLeu]-ENG-[(D)Lys]-NH2 (peptide)
peptide: Ac-[Abu]QTWQC[Phe(4-OMe)][2Nal][αMeL]ENG[dK]-NH2
modifications: thioether 1-6
B6: Ac-Cyclo-[[Abu]-QTWQC]-[Phe[4-(2-aminoethoxy)]]-W-Chg-[Lys(Ac)]-NG-NH2 (peptide)
peptide: Ac-[Abu]QTWQC[AEF]W[Chg]K(Ac)NG-NH2
modifications: thioether 1-6
B7: Ac-Cyclo-[[Abu]-QTWQC]-[Phe[4-(2-aminoethoxy)]]-[Phe(3,4-OMe2)]-[Aib]-ENG-NH2 (peptide)
peptide: Ac-[Abu]QTWQC[AEF][Phe(3,4-(OMe)2)][Aib]ENG-NH2
modifications: thioether 1-6
B8: Ac-Cyclo-[[Abu]-QTWQC]-[Phe[4-(2-aminoethoxy)]]-[Phe(3,4-Cl2)]-[Aib]-ENN-NH2 (peptide)
peptide: Ac-[Abu]QTWQC[AEF][Phe(3,4-Cl2)][Aib]ENN-NH2
modifications: thioether 1-6
B9: Ac-Cyclo-[[Abu]-QTWQC]-[Phe[4-(2-aminoethoxy)]]-W-[Orn]-ENG-NH2 (peptide)
peptide: XQTWQCFWXENG
modifications: as bracketed in name; thioether cyclo
B10: Ac-Cyclo-[[Abu]-QTWQC]-YW-[hLeu]-ENG-NH2 (peptide)
peptide: Ac-[Abu]QTWQCYW[hLeu]ENG-NH2
modifications: thioether 1-6
B11: Ac-Cyclo-[[Abu]-QTWQC]-[Phe(3,4-F2)]-[2-Nal]-[Aib]-ENG-NH2 (peptide)
peptide: Ac-[Abu]QTWQC[Phe(3,4-F2)][2Nal][Aib]ENG-NH2
modifications: thioether 1-6
B12: Ac-Cyclo-[[Abu]-DapTWQC]-[Phe[4-(2-aminoethoxy)]]-[Phe(3,4-Cl2)]-[α-MeLys]--[Lys(Ac)]-NG-NH2 (peptide)
peptide: Ac-[Abu][Dap]TWQC[AEF][Phe(3,4-Cl2)][αMeK]K(Ac)NG-NH2
modifications: thioether 1-6
B13: Ac-Cyclo-[[Abu]-QTWQC]-[Phe[4-(2-aminoethoxy)]]-W-[α-MeLys]-[Lys(Ac)]-[6-amino-1,4-diazepane-2,5-dione]-NH2 (peptide)
peptide: Ac-[Abu]QTWQC[AEF]W[αMeK]K(Ac)-{6‑amino‑1,4‑diazepane‑2,5‑dione-NH2}
modifications: thioether 1-6
B14: Ac-Cyclo-[[Abu]-QTWQC]-[Phe(4-OMe)]-[2-Nal][α-MeLys]-[Lys(Ac)]-NGGE-NH2 (peptide)
peptide: Ac-[Abu]QTWQC[Phe(4-OMe)(3)][2Nal][αMeK]K(Ac)NGGE-NH2
modifications: thioether 1-6
B15: Ac-Cyclo-[[Abu]-QTWQC]-[Phe(4-OMe)]-[Nal]-[Chg]-[Lys(Ac)]-NG-NH2 (peptide)
peptide: Ac-[Abu]QTWQC[Phe(4-OMe)(3)][2Nal][Chg]K(Ac)NG-NH2
modifications: thioether 1-6
B16: Ac-Cyclo-[[Abu]-QTWQC]-[Phe[4-(2-aminoethoxy)]]-1-Nal[Aib]-[Lys(Ac)]-NG-NH2 (peptide)
peptide: Ac-[Abu]QTWQC[AEF][1Nal][Aib]K(Ac)NG-NH2
modifications: thioether 1-6

The first test deals with T1, IL23R_huFC (human, UniProt Q5VWK5 24-353).
T1 sequence (looked up): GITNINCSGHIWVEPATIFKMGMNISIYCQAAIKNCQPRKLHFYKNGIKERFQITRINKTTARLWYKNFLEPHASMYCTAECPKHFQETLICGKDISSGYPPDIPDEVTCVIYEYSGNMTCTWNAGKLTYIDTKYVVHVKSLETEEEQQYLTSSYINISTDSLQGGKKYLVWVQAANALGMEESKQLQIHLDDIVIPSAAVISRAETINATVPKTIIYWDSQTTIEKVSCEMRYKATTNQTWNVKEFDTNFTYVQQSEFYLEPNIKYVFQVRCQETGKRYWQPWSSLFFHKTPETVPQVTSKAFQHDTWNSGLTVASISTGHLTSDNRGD
As to the kind of experiment: human ELISA vs IL-23. For orientation: An ELISA detects its analyte on a solid surface through an enzyme-linked reagent.
B1 displayed an IC50 of less than 10 nM.

As to B2, the IC50 was less than 10 nM.

The molecule B3 came in with an IC50 of less than 10 nM.

Molecule B4 showed an IC50 of less than 10 nM.

The target of a further test is T1, IL23R_huFC. As to the kind of experiment: human ELISA vs IL-23. The source holds these as a separate data set.
Take B5: the concentration for half-maximal inhibition (IC50) was 25 to 100 nM.

In turn, B6 gave an IC50 of 25 to 100 nM.

B7 came in with an IC50 of 25 to 100 nM.

In turn, B8 yielded an IC50 of 25 to 100 nM.

B9 yielded an IC50 of 25 to 100 nM.

B10 had an IC50 of 25 to 100 nM.

In turn, B11 gave an IC50 of 25 to 100 nM.

For B12, the IC50 was 25 to 100 nM.

In turn, B13 showed a half-maximal inhibitory concentration (IC50) of 25 to 100 nM.

In turn, B14 came in with a concentration for half-maximal inhibition (IC50) of 25 to 100 nM.

In turn, B15 registered an IC50 of 25 to 100 nM.

B16 displayed an IC50 of 25 to 100 nM.

The target of a further test is Rat IL-23R_huFC (rat). As to the kind of experiment: rat ELISA vs IL-23.
The molecule B1 yielded an IC50 of less than 10 nM.

For B2, the IC50 is less than 10 nM.

The molecule B3 returned an IC50 of less than 10 nM.

In turn, B4 gave an IC50 of less than 10 nM.

The next test deals with T2, IL-23R on human cells (IL-23R-expressing DB cells; human NK cells) (human, UniProt Q5VWK5 24-629).
T2 sequence (looked up): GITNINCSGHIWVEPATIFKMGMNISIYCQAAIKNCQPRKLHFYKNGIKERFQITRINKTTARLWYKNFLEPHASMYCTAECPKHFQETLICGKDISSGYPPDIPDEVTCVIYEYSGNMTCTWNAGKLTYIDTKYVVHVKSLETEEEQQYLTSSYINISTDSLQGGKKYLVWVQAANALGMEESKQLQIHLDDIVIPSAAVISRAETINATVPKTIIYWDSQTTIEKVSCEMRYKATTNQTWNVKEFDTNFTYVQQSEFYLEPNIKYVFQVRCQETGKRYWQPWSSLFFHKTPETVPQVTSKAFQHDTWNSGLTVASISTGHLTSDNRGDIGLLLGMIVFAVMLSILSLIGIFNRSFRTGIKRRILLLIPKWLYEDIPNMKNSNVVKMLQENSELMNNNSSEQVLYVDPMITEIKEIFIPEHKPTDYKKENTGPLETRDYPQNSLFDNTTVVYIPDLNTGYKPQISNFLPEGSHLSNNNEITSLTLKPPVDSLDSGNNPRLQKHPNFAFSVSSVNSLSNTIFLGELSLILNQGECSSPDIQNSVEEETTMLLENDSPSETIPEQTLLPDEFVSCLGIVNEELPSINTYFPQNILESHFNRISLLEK
As to the kind of experiment: cell-based or functional assay.
Take B1: the “pStat3 HTRF IC50” value was less than 10 nM.

Consider B2, for which the “pStat3 HTRF IC50” value was less than 10 nM.

Take B3: the “pStat3 HTRF IC50” value is less than 10 nM.

Regarding B4, the “pStat3 HTRF IC50” value was less than 10 nM.

Regarding B8, the “pStat3 HTRF IC50” value was less than 10 nM.

As for B13, the “pStat3 HTRF IC50” value was less than 10 nM.

As a reminder, the IC50 is the point on the concentration scale where inhibition reaches its midpoint. A lower IC50 goes with higher potency.

Source of the values: patent publication US20190300590A1 (PROTAGONIST THERAPEUTICS, published 2019).
